According to US20220298215A1:

Biological target: glucagon-like peptide 1 (GLP-1) receptor
Test: cell-based or functional assay

glucagon-like peptide 1 (GLP-1) receptor, sequence (P43220 24-463): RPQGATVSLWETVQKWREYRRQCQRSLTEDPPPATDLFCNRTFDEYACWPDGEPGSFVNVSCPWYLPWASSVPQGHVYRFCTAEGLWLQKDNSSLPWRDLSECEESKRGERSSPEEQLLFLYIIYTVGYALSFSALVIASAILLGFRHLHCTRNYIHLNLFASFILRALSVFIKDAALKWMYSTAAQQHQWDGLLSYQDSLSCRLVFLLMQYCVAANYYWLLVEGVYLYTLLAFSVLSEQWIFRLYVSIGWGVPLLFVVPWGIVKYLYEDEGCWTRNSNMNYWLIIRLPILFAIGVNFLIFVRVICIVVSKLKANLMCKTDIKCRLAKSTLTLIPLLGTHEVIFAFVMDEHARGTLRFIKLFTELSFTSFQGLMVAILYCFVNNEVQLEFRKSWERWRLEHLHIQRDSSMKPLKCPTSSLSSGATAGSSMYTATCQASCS

- EC50, CRE-luciferase reporter in HEK293-GLP1R-CRE-Luc cells: 0.0237 nM
Substance: Dulaglutide (Fc fusion)
